Article PMC6667456

Biological target: T1, TofR-His (also written His-TofR) (Burkholderia glumae BGR1?) (UniProt A1KWS3)
T1 sequence: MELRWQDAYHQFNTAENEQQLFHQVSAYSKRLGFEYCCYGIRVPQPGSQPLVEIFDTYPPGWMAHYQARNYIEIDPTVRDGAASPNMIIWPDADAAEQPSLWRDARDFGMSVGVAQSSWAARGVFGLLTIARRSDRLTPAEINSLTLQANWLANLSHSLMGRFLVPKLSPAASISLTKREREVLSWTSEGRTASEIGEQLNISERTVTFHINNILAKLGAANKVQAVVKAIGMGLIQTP
Assay: EMSA
Conditions: EMSA: 0.4 nM biotin-DNA, 10 mM Tris-HCl pH 7.5, 10 mM NaCl, 100 mM NaCl (both sic), 0.5 mM EDTA, 1 mM DTT, 5% glycerol, 50 ng/uL poly(dI-dC), 15 min …

Question: “TGGTGTCCTCCAGATATGGGCTGCAGTCGATATGGGCTGCAGTATCGGATCTCGCTTATCATTACTCAAACGAAATTTTCTTGAGTTGAACATGAAAAATATTCAGGTTCACGCTGCTACTGAACGCCGCCATGAATCGCTCGCCGCTTGAGCTGCGCCATCTGCAGACCCTCACGGCGCT (double strand) [metE1 putative promoter region, 181 bp]” was tested. Which binding did it give?
Answer: Its binding is “binds”.
